Positions count from the first letter of the chain named.
B1: NRC3_wobSeed49_DR2_C27T_o1 (dsDNA)
DNA 1: GCCAAACTAGGTCAAGAGGTCAAAGTTCGCTTCCCGGCGATTGACAGCGTAGAATGAAGG
DNA 2: CCTTCATTCTACGCTGTCAATCGCCGGGAAGCGAACTTTGACCTCTTGACCTAGTTTGGC
B2: NRC3_wobSeed89_DR3_T13C_o1 (dsDNA)
DNA 1: GCCTATGTAGGTCAAGGGGGTCATTCAGTTTGAAAGGCGATTGACAGCGTAGAATGAAGG
DNA 2: CCTTCATTCTACGCTGTCAATCGCCTTTCAAACTGAATGACCCCCTTGACCTACATAGGC
B3: NRC3_wobSeed41_DR1_T13C_o1 (dsDNA)
DNA 1: GCATATGTAGGTCAAGGGTCATTCAGGTTGGTTCGCGCGATTGACAGCGTAGAATGAAGG
DNA 2: CCTTCATTCTACGCTGTCAATCGCGCGAACCAACCTGAATGACCCTTGACCTACATATGC
B4: NRC3_wobSeed41_DR1_G16A_o1 (dsDNA)
DNA 1: B3 DNA 1 with C13T, G16A
DNA 2: B3 DNA 2 with C45T, G48A
B5: NRC3_wobSeed44_DR1_A18G_o1 (dsDNA)
DNA 1: GCTGAATGAGGTTAAAGGTCAGGGAACGTGGCGTCGGCGATTGACAGCGTAGAATGAAGG
DNA 2: CCTTCATTCTACGCTGTCAATCGCCGACGCCACGTTCCCTGACCTTTAACCTCATTCAGC
B6: NRC3_wobSeed45_DR1_A20T_o1 (dsDNA)
DNA 1: GCTGTCAAAGTTCAAAGGTTACGTAAGTATCCACACGCGATTGACAGCGTAGAATGAAGG
DNA 2: CCTTCATTCTACGCTGTCAATCGCGTGTGGATACTTACGTAACCTTTGAACTTTGACAGC
B7: NRC3_wobSeed45_DR1_T11G_o1 (dsDNA)
DNA 1: B6 DNA 1 with T11G, T20A
DNA 2: B6 DNA 2 with A41T, A50C

biological target: VDR:RXRa (Homo sapiens, UniProt P11473;P19793 full;full); assay: no ligand; PBM; 270 nM : 90 nM RXRa; PBS pH 7.4, 2% milk, 0.02% Triton X-100, 1 mM DTT, BSA, 0.4 mg/ml salmon testes DNA; conditions: tags: His kept;His cleaved; copies: 1;1; label: surface-attached array probe
Outline: (§1)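 Binding buffer was PBS pH 7.4 with 2% milk, 0.02% Triton X-100, 1 mM DTT, 0.2 mg/mL BSA and 0.4 mg/ml salmon testes DNA. In it, ligand-free nuclear receptor dimers were incubated 1 h on custom Agilent 4×180K protein-binding microarrays carrying double-stranded probes. Antibodies against each partner (one per run) detected binding, and z-scores were calculated against random background probes after regression normalization of scanned fluorescence.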

VDR:RXRa, sequence (P11473 whole entry, chain 1 of 2): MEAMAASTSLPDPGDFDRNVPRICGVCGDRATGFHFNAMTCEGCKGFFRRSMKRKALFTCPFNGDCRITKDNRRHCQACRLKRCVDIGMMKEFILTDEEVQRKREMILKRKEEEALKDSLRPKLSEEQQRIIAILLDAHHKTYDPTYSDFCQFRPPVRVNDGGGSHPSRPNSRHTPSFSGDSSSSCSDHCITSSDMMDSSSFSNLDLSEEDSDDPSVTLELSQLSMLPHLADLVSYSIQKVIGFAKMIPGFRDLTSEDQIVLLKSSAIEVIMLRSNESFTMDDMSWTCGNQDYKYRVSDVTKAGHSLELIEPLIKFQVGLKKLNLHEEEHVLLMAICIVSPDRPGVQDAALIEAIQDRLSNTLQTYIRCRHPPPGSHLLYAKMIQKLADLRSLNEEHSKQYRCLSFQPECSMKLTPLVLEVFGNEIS
VDR:RXRa, sequence (P19793 whole entry, chain 2 of 2): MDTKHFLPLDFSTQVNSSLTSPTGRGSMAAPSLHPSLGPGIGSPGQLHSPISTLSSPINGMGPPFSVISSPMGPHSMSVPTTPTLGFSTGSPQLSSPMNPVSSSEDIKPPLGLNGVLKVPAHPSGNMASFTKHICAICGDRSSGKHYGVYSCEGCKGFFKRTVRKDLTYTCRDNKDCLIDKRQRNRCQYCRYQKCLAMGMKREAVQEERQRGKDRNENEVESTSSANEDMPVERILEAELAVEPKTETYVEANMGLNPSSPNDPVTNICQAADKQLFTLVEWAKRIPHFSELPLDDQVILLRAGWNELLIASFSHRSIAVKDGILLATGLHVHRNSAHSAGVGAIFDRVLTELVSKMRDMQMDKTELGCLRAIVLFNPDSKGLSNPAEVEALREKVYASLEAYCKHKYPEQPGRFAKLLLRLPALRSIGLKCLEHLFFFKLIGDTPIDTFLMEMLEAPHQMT

Question: B1 was tested. Which binding signal did it give?
Answer: 6.55 PBM z-score against 500 random probes

Question: With B2 as the binder, how does the binding signal read?
Answer: 8.32 PBM z-score against 500 random probes

Question: Which binding signal does the source give for B3 here?
Answer: 6.57 PBM z-score against 500 random probes

Question: Which binding signal does the source give for B4 here?
Answer: 6.82 PBM z-score against 500 random probes

biological target: RARa:RXRa (Homo sapiens, UniProt P10276;P19793 full;full); assay: as above; conditions: tags: His kept;His cleaved; copies: 1;1; label: surface-attached array probe
Outline: as §1

RARa:RXRa, sequence (P10276 whole entry, chain 1 of 2): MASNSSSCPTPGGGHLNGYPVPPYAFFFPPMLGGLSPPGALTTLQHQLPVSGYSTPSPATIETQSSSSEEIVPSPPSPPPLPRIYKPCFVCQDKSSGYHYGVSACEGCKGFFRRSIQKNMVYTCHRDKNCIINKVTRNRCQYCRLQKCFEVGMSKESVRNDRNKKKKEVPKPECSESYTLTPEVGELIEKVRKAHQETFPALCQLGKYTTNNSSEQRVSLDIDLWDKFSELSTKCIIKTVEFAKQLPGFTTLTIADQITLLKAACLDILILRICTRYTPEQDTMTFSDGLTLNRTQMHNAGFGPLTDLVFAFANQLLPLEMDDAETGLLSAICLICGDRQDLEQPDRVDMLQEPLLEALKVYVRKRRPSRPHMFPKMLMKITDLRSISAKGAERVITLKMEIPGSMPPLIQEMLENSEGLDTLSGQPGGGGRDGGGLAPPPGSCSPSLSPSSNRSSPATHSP
RARa:RXRa, sequence (P19793 whole entry, chain 2 of 2): as the sequence (P19793 whole entry, chain 2 of 2) above

Question: Which binding signal does the source give for B1 here?
Answer: 8.47 PBM z-score against 500 random probes

Question: For B2, which binding signal is on record?
Answer: 7.29 PBM z-score against 500 random probes

Question: For B5, which binding signal is on record?
Answer: 9.15 PBM z-score against 500 random probes

Question: With B6 as the binder, how does the binding signal read?
Answer: 8.47 PBM z-score against 500 random probes

Question: B7 was tested. Which binding signal did it give?
Answer: 8.2 PBM z-score against 500 random probes

Question: Which binding signal does the source give for B3 here?
Answer: 7.96 PBM z-score against 500 random probes

Question: With B4 as the binder, how does the binding signal read?
Answer: 8.42 PBM z-score against 500 random probes

biological target: RARg:RXRa (Homo sapiens, UniProt P13631;P19793 full;full); assay: as above; conditions: tags: His kept;His cleaved; copies: 1;1; label: surface-attached array probe
Outline: as §1

Question: With B6 as the binder, how does the binding signal read?
Answer: 7.83 PBM z-score against 500 random probes

Question: How did the binding signal turn out when B7 was run?
Answer: 8.53 PBM z-score against 500 random probes

biological target: PPARa:RXRa (Homo sapiens, UniProt Q07869;P19793 full;full); assay: as above; conditions: tags: GST kept;His cleaved; copies: 1;1; label: surface-attached array probe
Outline: as §1

Question: Which binding signal does the source give for B1 here?
Answer: 6.92 PBM z-score against 500 random probes

Question: How did the binding signal turn out when B2 was run?
Answer: 6.84 PBM z-score against 500 random probes

Question: How did the binding signal turn out when B5 was run?
Answer: 6.96 PBM z-score against 500 random probes

Question: How did the binding signal turn out when B6 was run?
Answer: 6.95 PBM z-score against 500 random probes

Question: Which binding signal does the source give for B7 here?
Answer: 7.31 PBM z-score against 500 random probes

Question: With B3 as the binder, how does the binding signal read?
Answer: 7.55 PBM z-score against 500 random probes

Question: B4 was tested. Which binding signal did it give?
Answer: 7.09 PBM z-score against 500 random probes

biological target: LXRb:RXRa (Homo sapiens, UniProt P55055;P19793 full;full); assay: as above; conditions: tags: His kept;His cleaved; copies: 1;1; label: surface-attached array probe
Outline: as §1

LXRb:RXRa, sequence (P55055 whole entry, chain 1 of 2): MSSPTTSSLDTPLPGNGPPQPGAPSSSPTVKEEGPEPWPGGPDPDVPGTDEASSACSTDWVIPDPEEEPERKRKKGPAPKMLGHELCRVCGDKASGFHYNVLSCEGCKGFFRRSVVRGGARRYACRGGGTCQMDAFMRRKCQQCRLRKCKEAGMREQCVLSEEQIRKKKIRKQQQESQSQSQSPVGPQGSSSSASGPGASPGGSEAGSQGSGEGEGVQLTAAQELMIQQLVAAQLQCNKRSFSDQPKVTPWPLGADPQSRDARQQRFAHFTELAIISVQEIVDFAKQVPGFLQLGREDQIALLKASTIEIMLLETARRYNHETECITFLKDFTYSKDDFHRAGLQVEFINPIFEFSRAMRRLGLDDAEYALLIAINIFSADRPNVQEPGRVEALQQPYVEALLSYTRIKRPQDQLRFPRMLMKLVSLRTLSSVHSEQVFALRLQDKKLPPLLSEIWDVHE
LXRb:RXRa, sequence (P19793 whole entry, chain 2 of 2): as the sequence (P19793 whole entry, chain 2 of 2) above

Question: B2 was tested. Which binding signal did it give?
Answer: 6.92 PBM z-score against 500 random probes

Question: For B6, which binding signal is on record?
Answer: 5.93 PBM z-score against 500 random probes

Question: B7 was tested. Which binding signal did it give?
Answer: 6.94 PBM z-score against 500 random probes

Question: B3 was tested. Which binding signal did it give?
Answer: 6.03 PBM z-score against 500 random probes

Question: For B4, which binding signal is on record?
Answer: 5.91 PBM z-score against 500 random probes

biological target: LXRa:RXRa (Homo sapiens, UniProt Q13133;P19793 full;full); assay: as above; conditions: tags: His kept;His cleaved; copies: 1;1; label: surface-attached array probe
Outline: as §1

Question: B6 was tested. Which binding signal did it give?
Answer: 7.17 PBM z-score against 500 random probes

Question: With B7 as the binder, how does the binding signal read?
Answer: 7.81 PBM z-score against 500 random probes

biological target: RARb:RXRa (Homo sapiens, UniProt P10826;P19793 full;full); assay: as above; conditions: tags: His kept;His cleaved; copies: 1;1; label: surface-attached array probe
Outline: as §1

Question: How did the binding signal turn out when B6 was run?
Answer: 5.55 PBM z-score against 500 random probes

Question: With B7 as the binder, how does the binding signal read?
Answer: 6.49 PBM z-score against 500 random probes

biological target: PXR:RXRa (Homo sapiens, UniProt O75469;P19793 full;full); assay: as above; conditions: tags: His kept;His cleaved; copies: 1;1; label: surface-attached array probe
Outline: as §1

PXR:RXRa, sequence (O75469 whole entry, chain 1 of 2): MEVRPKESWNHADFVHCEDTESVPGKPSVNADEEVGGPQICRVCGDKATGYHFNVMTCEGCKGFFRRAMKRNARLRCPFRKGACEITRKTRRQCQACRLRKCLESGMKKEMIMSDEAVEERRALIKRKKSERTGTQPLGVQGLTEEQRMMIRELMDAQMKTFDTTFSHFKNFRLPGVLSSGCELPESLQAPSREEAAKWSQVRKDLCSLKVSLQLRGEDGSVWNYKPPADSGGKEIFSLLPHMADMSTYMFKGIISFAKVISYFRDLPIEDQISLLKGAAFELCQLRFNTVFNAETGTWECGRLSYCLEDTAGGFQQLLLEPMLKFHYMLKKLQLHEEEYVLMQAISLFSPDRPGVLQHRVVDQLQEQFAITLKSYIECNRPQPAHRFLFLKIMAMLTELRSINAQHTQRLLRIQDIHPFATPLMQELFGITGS
PXR:RXRa, sequence (P19793 whole entry, chain 2 of 2): as the sequence (P19793 whole entry, chain 2 of 2) above

Question: B1 was tested. Which binding signal did it give?
Answer: 6.88 PBM z-score against 500 random probes

Question: Which binding signal does the source give for B2 here?
Answer: 6.79 PBM z-score against 500 random probes

Question: B5 was tested. Which binding signal did it give?
Answer: 6.68 PBM z-score against 500 random probes

Question: B6 was tested. Which binding signal did it give?
Answer: 6.87 PBM z-score against 500 random probes

Question: B7 was tested. Which binding signal did it give?
Answer: 6.66 PBM z-score against 500 random probes

Question: B3 was tested. Which binding signal did it give?
Answer: 6.6 PBM z-score against 500 random probes

Question: Which binding signal does the source give for B4 here?
Answer: 6.71 PBM z-score against 500 random probes

biological target: FXR:RXRa (Homo sapiens, UniProt Q96RI1;P19793 full;full); assay: as above; conditions: tags: His kept;His cleaved; copies: 1;1; label: surface-attached array probe
Outline: as §1

Question: With B1 as the binder, how does the binding signal read?
Answer: 7.82 PBM z-score against 500 random probes

Question: How did the binding signal turn out when B7 was run?
Answer: 9.11 PBM z-score against 500 random probes

biological target: PPARg:RXRa (Homo sapiens, UniProt P37231;P19793 full;full); assay: no ligand; PBM; 180 nM : 90 nM RXRa; PBS pH 7.4, 2% milk, 0.02% Triton X-100, 1 mM DTT, BSA, 0.4 mg/ml salmon testes DNA; conditions: tags: His kept;His cleaved; copies: 1;1; label: surface-attached array probe

Question: How did the binding signal turn out when B1 was run?
Answer: 11 PBM z-score against 500 random probes

Question: B2 was tested. Which binding signal did it give?
Answer: 11.1 PBM z-score against 500 random probes

Question: With B5 as the binder, how does the binding signal read?
Answer: 11.9 PBM z-score against 500 random probes

Question: Which binding signal does the source give for B6 here?
Answer: 9.98 PBM z-score against 500 random probes

Question: With B7 as the binder, how does the binding signal read?
Answer: 12.1 PBM z-score against 500 random probes

Question: With B3 as the binder, how does the binding signal read?
Answer: 13.1 PBM z-score against 500 random probes

Question: With B4 as the binder, how does the binding signal read?
Answer: 13.4 PBM z-score against 500 random probes

biological target: RXRa (Homo sapiens, UniProt P19793); assay: no ligand; PBM; 180 nM; PBS pH 7.4, 2% milk, 0.02% Triton X-100, 1 mM DTT, BSA, 0.4 mg/ml salmon testes DNA; conditions: tags: His cleaved; chain copies: 2; label: surface-attached array probe
Sequence (P19793 whole entry): as the sequence (P19793 whole entry, chain 2 of 2) above

Question: How did the binding signal turn out when B5 was run?
Answer: 9.53 PBM z-score against 500 random probes

Question: Which binding signal does the source give for B6 here?
Answer: 9.74 PBM z-score against 500 random probes

Question: With B7 as the binder, how does the binding signal read?
Answer: 10.1 PBM z-score against 500 random probes

Question: With B3 as the binder, how does the binding signal read?
Answer: 9.04 PBM z-score against 500 random probes

Question: Which binding signal does the source give for B4 here?
Answer: 9.21 PBM z-score against 500 random probes
